The results in this text go back to patent publication US20080199851A1.

For experiment [1], the target named is Inactivated influenza B virus Hong Kong 5/72 (Influenza B virus Hong Kong 5/72). Put plainly: lateral-flow sandwich, M2110171 line + 2/3-Eu, 0.016 HA units/test, against 0 HA.
For experiment [2] the target is unchanged. The experiment can be described thus: lateral-flow sandwich, M2110171 line + 2/3-Eu, 0.0041 HA units.
For experiment [3] the target is unchanged. Put plainly: lateral-flow sandwich, B line: M2110171 striped + 2/3-Eu.
For experiment [4] the target is unchanged. The experiment can be described thus: lateral-flow sandwich, M2110171 line + 2/3-Eu, 0.0082 HA units.
Experiment [5] has the same target. Put plainly: lateral-flow sandwich, M2110171 line + 2/3-Eu, 0.008 HA units/test.
Experiment [6] shares this target. Put plainly: lateral-flow sandwich, M2110171 line + 2/3-gold, 0.041 HA/test.
For experiment [7] the target is unchanged. Put plainly: lateral-flow sandwich, M2110171 line + 2/3-Eu, 0.016 HA units/test.
Experiment [8] has the same target. The experiment can be described thus: lateral-flow sandwich, M2110171 line + 2/3-Eu, 0.0164 HA units.
Experiment [9] shares this target. Put plainly: lateral-flow sandwich, M2110171 line + 2/3-Eu, 0.0123 HA units.
The target is the same in experiment [10]. The experiment can be described thus: lateral-flow sandwich, M2110171 line + 2/3-Eu, 0.0328 HA units.
The target is the same in experiment [11]. The experiment can be described thus: lateral-flow sandwich, M2110171 line + 2/3-gold, 0.164 HA/test.
The target is the same in experiment [12]. Put plainly: lateral-flow sandwich, M2110171 line + 2/3-gold, 0.082 HA/test.
Experiment [13] shares this target. Put plainly: lateral-flow sandwich, M2110171 line + 2/3-Eu, 0.008 HA units/test, against 0 HA.
For experiment [14] the target is unchanged. Put plainly: lateral-flow sandwich, M2110171 line + 2/3-Eu, 0.004 HA units/test.
The target is the same in experiment [15]. Put plainly: lateral-flow sandwich, M2110171 line + 2/3-Eu, 0.0021 HA units.
Experiment [16] has the same target. Put plainly: lateral-flow sandwich, M2110171 line + 2/3-Eu, 0.032 HA units/test, against 0 HA.
The target is the same in experiment [17]. Put plainly: lateral-flow sandwich, M2110171 line + 2/3-gold, 0.021 HA/test.
Experiment [18] has the same target. Put plainly: lateral-flow sandwich, M2110171 line + 2/3-Eu, 0.004 HA units/test, against 0 HA.
The target is the same in experiment [19]. The experiment can be described thus: lateral-flow sandwich, M2110171 line + 2/3-Eu, 0.002 HA units/test.
For experiment [20] the target is unchanged. Put plainly: lateral-flow sandwich, M2110171 line + 2/3-Eu, 0.032 HA units/test.
Experiment [21] has the same target. Put plainly: lateral-flow sandwich, M2110171 line + 2/3-Eu, 0.002 HA units/test, against 0 HA.
Experiment [22] addresses Inactivated influenza A virus Texas 1/77 (H3N2) (Influenza A virus Texas 1/77 (H3N2)). Put plainly: lateral-flow sandwich, 7304 line + M4090913-Eu, 0.082 HA units.
Experiment [23] has the same target. The experiment can be described thus: lateral-flow sandwich, 7304 line + M4090913-Eu, 1 HA unit/test, against 0 HA.
Experiment [24] has the same target. Put plainly: lateral-flow sandwich, 7304 line + M4090913-Eu, 0.021 HA units.
Experiment [25] has the same target. Put plainly: lateral-flow sandwich, 7304 line + M4090913-Eu, 0.041 HA units.
The target is the same in experiment [26]. The experiment can be described thus: lateral-flow sandwich, 7304 line + M4090913-gold, 0.82 HA/test.
Experiment [27] has the same target. The experiment can be described thus: lateral-flow sandwich, 7304 line + M4090913-Eu, 0.164 HA units.
The target is the same in experiment [28]. The experiment can be described thus: lateral-flow sandwich, 7304 line + M4090913-gold, 1.64 HA/test.
The target is the same in experiment [29]. Put plainly: lateral-flow sandwich, 7304 line + M4090913-gold, 0.41 HA/test.
The target in experiment [30] is Inactivated influenza B virus Hong Kong 5/72 (Influenza B virus Hong Kong 5/72). The experiment can be described thus: lateral-flow sandwich, A line: 7304 striped + M4090913-Eu.
The target in experiment [31] is Inactivated influenza A virus Texas 1/77 (H3N2) (Influenza A virus Texas 1/77 (H3N2)). The experiment can be described thus: lateral-flow sandwich, 7304 line + M4090913-Eu, 0.04 HA units/test.
The target is the same in experiment [32]. The experiment can be described thus: lateral-flow sandwich, 7304 line + M4090913-Eu, 0.02 HA units/test.
The target is the same in experiment [33]. The experiment can be described thus: lateral-flow sandwich, 7304 line + M4090913-gold, 0.105 HA/test.
The target is the same in experiment [34]. The experiment can be described thus: lateral-flow sandwich, 7304 line + M4090913-gold, 0.21 HA/test.
For experiment [35] the target is unchanged. The experiment can be described thus: lateral-flow sandwich, 7304 line + M4090913-Eu, 0.01 HA units/test.
Experiment [36] has the same target. Put plainly: lateral-flow sandwich, 7304 line + M4090913-Eu, 1 HA unit/test.
Experiment [37] shares this target. The experiment can be described thus: lateral-flow sandwich, 7304 line + M4090913-Eu, 0.021 HA unit.
The target is the same in experiment [38]. Put plainly: lateral-flow sandwich, 7304 line + M4090913-Eu, 0.02 HA units/test, against 0 HA.
The target is the same in experiment [39]. The experiment can be described thus: lateral-flow sandwich, 7304 line + M4090913-Eu, 0.01 HA units/test, against 0 HA.
Experiment [40] shares this target. The experiment can be described thus: lateral-flow sandwich, 7304 line + M4090913-Eu, 0.04 HA units/test, against 0 HA.
Experiment [41] shares this target. The experiment can be described thus: lateral-flow sandwich, 7304 line + M4090913-Eu, 0.1 HA units/test.
For experiment [42] the target is unchanged. Put plainly: lateral-flow sandwich, 7304 line + M4090913-Eu, 0.123 HA units.
Experiment [43] has the same target. The experiment can be described thus: lateral-flow sandwich, 7304 line + M4090913-Eu, 0.328 HA units.
For experiment [44] the target is unchanged. Put plainly: lateral-flow sandwich, 7304 line + M4090913-Eu, 0.1 HA units/test, against 0 HA.
For experiment [45], the target named is Inactivated influenza B virus Hong Kong 5/72 (Influenza B virus Hong Kong 5/72). Put plainly: lateral-flow sandwich, 9901 line + 2/3-Eu, 0.0328 HA units.
Experiment [46] has the same target. Put plainly: lateral-flow sandwich, 9901 line + 2/3-Eu, 0.0082 HA units.
The target is the same in experiment [47].
Experiment [48] has the same target. Put plainly: lateral-flow sandwich, 9901 line + 2/3-Eu, 0.0164 HA units.
Experiment [49] shares this target. The experiment can be described thus: lateral-flow sandwich, 9901 line + 2/3-Eu, 0.0041 HA units.
The target is the same in experiment [50]. The experiment can be described thus: lateral-flow sandwich, 9901 line + 2/3-Eu, 0.0123 HA units.
The target is the same in experiment [51]. Put plainly: lateral-flow sandwich, 9901 line + 2/3-Eu, 0.0021 HA units.

“And” between values parts separate entries of the source, which are not always exact repeats. Equal entries are not always repeated.

Regarding “Anti-Flu B nucleoprotein M2110171 (Fitzgerald) (antibody)”, the signal/noise was determined as 19.8 in experiment [1]; 11.2 in experiment [13]; 47.6 in [16]; 6 in [18]; 3.5 in [21]. Further, the fluorescence intensity (AVG) is 2670 in experiment [2]; 3590 in [4]; 7130 in experiment [8]; 6550 in experiment [9]; 12800 in experiment [10]; 1380 in experiment [15]. Also, in experiment [3], the Signal/noise of test line is 437. Also, the Net peak height was 1630 and 1700 in experiment [5]; 3330 and 2570 in experiment [7]; 884 and 896 in experiment [14]; 496 and 539 in [19]; 7200 and 6970 in experiment [20]. Further, the Net peak height (AVG) came to 1670 in [5]; 2950 in experiment [7]; 890 in experiment [14]; 517 in experiment [19]; 7090 in experiment [20]. The Peak Intensity is 4.8 and 4.6 in experiment [6]; 14.4 and 13.3 in experiment [11]; 7.3 and 8.2 in experiment [12]; 2.8 and 2.7 in experiment [17]. For the same substance, the Peak Intensity(avg) in [6] was 4.67; in [11], 13.8; in [12], 7.76; in [17] it was 2.78.

With anti-Flu A Medix 7304 antibody, the fluorescence intensity (AVG) was determined as 2280 in experiment [22]; 1270 in experiment [24]; 1600 in experiment [25]; 4080 in experiment [27]; 3730 in experiment [42]; 8690 in experiment [43]. Moreover, the S/N came to 37.4 in experiment [23]; 1.8 in experiment [38]; 1.4 in [39]; 2.6 in experiment [40]; 4.5 in [44]. Besides, the Peak Intensity in experiment [26] was 14.8 and 13.5; in experiment [28], 26.4 and 22.5; in experiment [29], 13.2 and 9.1; in experiment [33] it was 2.2 and 3.3; in [34], 4.8 and 8.6. Further, the Peak Intensity(avg) is 14.1 in [26]; 24.5 in experiment [28]; 11.2 in [29]; 2.8 in [33]; 6.7 in experiment [34]. Further, the Signal/noise of test line in experiment [30] was 4.8. Moreover, the fluorescence signal was 1420 and 1440 in [31]; 936 and 1040 in experiment [32]; 794 and 776 in experiment [35]; 21100 and 20000 in experiment [36]; 2550 and 2400 in experiment [41]. Further, the fluorescence signal (AVG) in experiment [31] is 1430; in experiment [32] it was 987; in experiment [35], 785; in experiment [36], 20500; in [41], 2470. Further, the Signal/noise (S/N) ratio in experiment [37] amounted to 2.03.

As for anti-Flu B Medix 9901 antibody, the fluorescence intensity (AVG) in experiment [45] worked out at 9990; in experiment [46] it was 2480; in [48], 5440; in [49] it was 1580; in experiment [50], 2710; in [51] it was 1490. Besides, the S/N ratio in experiment [47] came out at 4.96.
